B1: Protein C-ets-1, residues 55 to 135; numbered along this chain, P14921 (parent)
chain: GFTKEQQRLGIPKDPRQWTETHVRDWVMWAVNEFSLKGVDFQKFCMNGAALCALGKDCFLELAPDFVGDILWEHLEILQKE

Variants of: B1
Experiment: abundance fitness (aPCA) (normalised: wild type 0, dead -1); higher = more abundant; growth selection in yeast, the domain comes from the species named
Conditions: Homo sapiens

Abundance fitness of substitutions, site by site:
R8: P -0.132 | V -0.122 | K -0.062 | F -0.091 | Q -0.083 | I -0.17 | C -0.154
G1: I -0.077 | R -0.191 | K 0.049 | M -0.186 | W -0.248 | T -0.262 | N 0.143 | L -0.157 | C -0.21 | Y -0.114 | V -0.108 | A -0.091 | E -0.042 | D 0.074 | S -0.039
K13: C -0.04 | E -0.084 | F -0.152 | D -0.054 | G -0.088
F2: E -0.345 | P -0.398 | K -0.232 | S -0.365 | V -0.289 | Q -0.522 | Y -0.161 | R -0.298 | T -0.23 | G -0.272 | I -0.355 | L -0.343 | N -0.141 | A -0.24 | C -0.408 | D -0.143 | H -0.43 | M -0.238
K4: A -0.178 | N 0.024 | G -0.054 | W -0.207 | C -0.108 | V -0.098 | F 0.038 | P -0.325 | S -0.055 | Y -0.039 | R -0.071 | L -0.085 | M -0.043 | H -0.148 | I 0.037 | Q -0.031 | T -0.071 | E 0.008
G10: Q 0.008 | R -0.056 | C -0.15 | H -0.072 | N -0.135 | Y -0.33 | V -0.2 | D 0.015 | I -0.187 | P -0.263 | K -0.028 | S -0.062 | T -0.103 | A -0.057 | E -0.067 | W -0.364 | L -0.244
P12: A -0.46 | T -0.799 | G -0.427 | M -0.747 | Q -0.814 | D -0.371 | R -0.709 | W -0.706 | F -0.606 | E -0.413 | C -0.305 | H -0.379 | N -0.47 | L -0.567 | S -0.28 | K -0.419 | V -0.763
Q7: L -0.02 | P -0.294 | T -0.06 | I 0.062 | E 0.089 | K 0.074 | R -0.034 | G -0.047 | W -0.133 | V -0.028 | S -0.069 | F -0.121 | D 0 | A -0.055 | N -0.026 | C -0.256 | M 0.04
L9: Q -0.165 | E -0.261 | K -0.139 | G -0.195 | R -0.017 | V -0.126 | P -0.32 | H -0.216 | T -0.082 | N -0.137 | M -0.066 | A -0.182 | F -0.2 | C -0.088 | I -0.178 | Y -0.158 | W -0.192
T3: F -0.029 | M -0.028 | N -0.121 | G -0.042 | Q -0.032 | H -0.066 | E 0.011 | A -0.032 | W -0.031 | R -0.082 | L -0.055 | I -0.005 | P -0.177 | Y -0.206 | V -0.063 | K 0.025 | C -0.075
Q6: N -0.136 | F -0.075 | L -0.006 | V -0.096 | G -0.101 | E -0.164 | H -0.235 | D -0.277 | M 0.024 | W -0.1 | A 0.019 | T -0.102 | Y -0.058 | I 0.034 | R -0.041 | K -0.143 | C -0.113 | P -0.389 | S -0.005
